# From paper PMC11273223 (Glycobiology, 2024)
# B1: UGT71C1 (Arabidopsis thaliana) (protein)
# chain: GKQEDAELVIIPFPFSGHILATIELAKRLISQDNPRIHTITILYWGLPFIPQADTIAFLRSLVKNEPRIRLVTLPEVQDPPPMELFVEFAESYILEYVKKMVPIIREALSTLLSSRDESGSVRVAGLVLDFFCVPMIDVGNEFNLPSYIFLTCSAGFLGMMKYLPERHREIKSEFNRSFNEELNLIPGYVNSVPTKVLPSGLFMKETYEPWVELAERFPEAKGILVNSYTALEPNGFKYFDRCPDNYPTIYPIGPILCSNDRPNLDSSERDRIITWLDDQPESSVVFLCFGSLKNLSATQINEIAQALEIVDCKFIWSFRTNPKEYASPYEALPHGFMDRVMDQGIVCGWAPQVEILAHKAVGGFVSHCGWNSILESLGFGVPIATWPMYAEQQLNAFTMVKELGLALEMRLDYVSEDGDIVKADEIAGTVRSLMDGVDVPKSKVKEIAEAGKEAVDGGSSFLAVKRFIGDLIDGVSISK
# How the values were obtained:
# [1] = target: T1, TcCGT1 (Trollius chinensis, UniProt A0A4Y5RXX8); assay: HPLC end-point turnover to O- and C-glucosides; type: biochemical; conditions: 50 μM aloesone, 200 μM UDP-Glc, 50 mM HEPES, pH 7.4, 30 °C, overnight
# T1 sequence (A0A4Y5RXX8 2-483): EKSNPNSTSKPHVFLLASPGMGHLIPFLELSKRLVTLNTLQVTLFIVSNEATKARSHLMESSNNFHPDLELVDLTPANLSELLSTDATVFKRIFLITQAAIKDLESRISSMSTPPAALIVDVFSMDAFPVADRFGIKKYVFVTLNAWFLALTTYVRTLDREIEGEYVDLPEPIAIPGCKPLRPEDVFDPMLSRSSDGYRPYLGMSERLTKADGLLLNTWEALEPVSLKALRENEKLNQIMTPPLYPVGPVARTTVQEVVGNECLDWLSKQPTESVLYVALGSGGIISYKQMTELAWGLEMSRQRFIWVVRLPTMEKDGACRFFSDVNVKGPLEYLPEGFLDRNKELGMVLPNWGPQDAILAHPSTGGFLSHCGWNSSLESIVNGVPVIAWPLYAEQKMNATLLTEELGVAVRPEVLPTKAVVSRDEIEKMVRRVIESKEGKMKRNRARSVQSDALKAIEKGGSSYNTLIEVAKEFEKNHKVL
# [2] = substrate: CC(=O)Cc1cc(=O)c2c(C)cc(O)cc2o1; assay: HPLC initial rates of O-glucoside formation, Michaelis-Menten fit; type: biochemical, Arabidopsis thaliana; conditions: 0.8 mM UDP-Glc, 50 mM HEPES, 50 mM NaCl, pH 7.4
Molecule,HPLC end-point turnover to O- and C-glucosides [1],Km [2] [µM],kcat [2] [s⁻¹],kcat/Km [2] [M⁻¹ s⁻¹]
"CC(=O)Cc1cc(=O)c2c(C)cc(O)cc2o1 [aloesone, 2-acetonyl-7-hydroxy-5-methylchromone]",both C-and O-glucosides were detected in the reaction with TcCGT1,,,
B1,,50.54 ± 7.29,0.27 ± 0.01,5000
